# Results taken from the supplement of paper PMC12042874.
# ± gives the uncertainty stated by the source.
# Test: amyloid nucleation score (Sup35N fusion, yeast selection) (log enrichment); library NNK2; higher = more nucleation; inactive = no reads after selection
# Summary of the method: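 Psi-negative yeast expressed Sup35N fused to peptides of 20 random codons. They were induced 24 hours with 100 μM copper sulfate, grown 7 days at 30°C without adenine and uracil, and their plasmid inserts from input and output were Illumina-sequenced. The nucleation score is the DiMSum log enrichment of output over input reads, centred on the mode score of non-aggregating sequences. Sequences with under 100 input reads were excluded.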
row,Substance,amyloid nucleation score
1,NFSAFGRFNLNLWMNNITRL,4.05 ± 0.077
2,FGLTACH,-0.579 ± 0.54
3,LGMRLFRNVCYGLPSRSNRR,1.64 ± 0.41
4,STSFRASSGDKYEFDVKHLV,0.195 ± 0.76
5,CTSMGA,-0.291 ± 0.79
6,MAELLHKYGYKDAVRNIHPY,0.641 ± 0.62
7,HLNCISRGPMWLNDRMCQCP,1.76 ± 0.12
8,PRVVGGFANISMWLATGTPF,2.94 ± 0.093
9,AEDFVLAEEYI,-0.285 ± 0.76
10,VGGLFYLLLMG,-0.865 ± 0.53
11,DVSESRSTVDGSDNEGWLTD,0.299 ± 0.42
12,FSVLILFMLIWNNGCYLKED,1.94 ± 0.11
13,VWPLFAEDGCNANGVVNQVS,0.955 ± 0.22
14,WYFWGLHMIGVSTAISNPLR,-0.683 ± 1.1
15,CAKLGTSSRFIFE,0.073 ± 1.1
16,DGFVGALDGVISSCWNTLRG,-0.701 ± 0.63
17,GSKALVSGGFVSGVKYGKAI,inactive
18,KWVMRNIWDTYSKVGLQSST,-0.206 ± 0.39
19,YPWLRIWCDRNDIEVGLVFA,-0.055 ± 0.79
20,EVYYTSMERCGG,1.36 ± 0.22
21,ASELLGYMCDIVASLGVVRY,0.747 ± 0.43
22,RIRASKPVFKAFLTPGSYLF,-1.87 ± 1
23,VWGRMLRVGFGEV,0.066 ± 0.63
24,ACCLIAIWRPI,5.47 ± 0.085
25,ASGVIDIGYIIVEVVMIFYI,-0.697 ± 0.5

row,Substance,amyloid nucleation score
1,CYAPKYGRHWP,0.708 ± 0.49
2,ANHVSKDIFVNCEVKVPHVW,5.937 ± 0.051
3,IIGDTICVVIIKWNLKNYRS,3.67 ± 0.075
4,FRNNKLYIRVYRSKWTE,-1.22 ± 1.1
5,IDRCGTLVTPDGINGRVTRV,0.951 ± 0.55
6,LIFRVFFALTVGIRRIMHML,5.83 ± 0.059
7,LLCRTCFRVQYAYDNLVMFL,inactive
8,VRVEERSVTAYRFMTKPAWW,4.88 ± 0.096
9,ISLHDRWIADPFVTACGKRY,0.386 ± 0.19
10,RPDNSDV,-1.61 ± 0.54
11,SNYGCDQWWNITWFE,-0.791 ± 0.61
12,TFRCVVRPLGMRSVLMAGSG,0.852 ± 0.47
13,SSSFLL,-0.545 ± 0.76
14,VQYCFFCAHRDSFGFKHCF,inactive
15,DCSNDRKIYYNWAIRVVRTD,0.076 ± 0.35
16,LTSFGDEC,-0.153 ± 1.1
17,VSFNGSVGMS,-0.907 ± 1.1
18,RVGQGSEACFRSWSIAGPPY,2.8 ± 0.14
19,VNAHLWYIFRVWDVKDRVVD,-0.315 ± 0.74
20,LCSKGYIMRSAGCRVDCSGV,-0.58 ± 0.41
21,TDWVW,0.593 ± 0.2
22,CLKPFRHTFEFLYQVDFTEV,-1.56 ± 1.1
23,TTRSIMQCDLGTNPFDNTCS,0.203 ± 0.41
24,NTMMGV,-0.724 ± 0.64
25,CTCFVLSGSVV,2.4 ± 0.13

row,Substance,amyloid nucleation score
1,GFVDTTLCMVNLFYGRKSHL,7.862 ± 0.047
2,LCTIRFVNIFVCRMSKLNSH,-1.4 ± 0.62
3,NFFAHRVCHYFVIRCGLIT,inactive
4,TIIKDIVIVDVFSSN,1.53 ± 0.15
5,NYILRQAGEMFGLLGDFGDG,-0.165 ± 0.45
6,NYVYSTCYALDQCQFKYNVQ,0.655 ± 0.26
7,SECENAFVGVPPWRTKILWS,2.19 ± 0.12
8,VRWAKNNRMTLYLKITLRAK,-0.951 ± 0.37
9,DMLPVRVVAHWCVVARCTRV,0.965 ± 0.2
10,SLVENRVGISDVWKVSTLVG,0.042 ± 0.29
11,FCCARILVNVSCVGATCGMC,8.258 ± 0.043
12,YMVGVSITMCCRATLNFSSM,5.21 ± 0.06
13,RNYVIFTSEAKVAADIPLYL,2.45 ± 0.21
14,YCSWFVWSTANVSMAYIVEF,-0.892 ± 0.41
15,RSDCCRDQYT,-0.311 ± 1.1
16,ISRRHGFIILLGNDIRRVDY,0.554 ± 0.81
17,MDAYRCWAQMYRTYMLMCLV,0.039 ± 0.27
18,YASTRRIGLEDIVW,-0.821 ± 0.78
19,RLLNTAVLVANESNQNARDR,-0.245 ± 0.29
20,AFELSVTLCSTEMLQHRCIG,-0.081 ± 1.1
21,VGGGVHGEFGHHYCPSVLGL,1.81 ± 0.2
22,MLWVWSLSQTLVRTKVRVLS,0.024 ± 0.5
23,DRYSTCSNRKSTRYLFMTFA,0.151 ± 0.36
24,ACSVNCLRECNR,inactive
25,RHLHYRRYKIAAKGLIVFMN,3.95 ± 0.067

row,Substance,amyloid nucleation score
1,WSEISWTIQGCFVRHDALLG,0.087 ± 0.56
2,SSFSHLSNAIGMPFICNCEP,-0.385 ± 0.45
3,GTCLSFYEFNSWWIIKMFSK,0.657 ± 0.23
4,NREANLDDWLGRGQFSMIWW,-0.287 ± 0.79
5,IVWGC,0.493 ± 0.34
6,TMLFTALDASHWG,6.696 ± 0.05
7,SEKGKEYSSVDMGQNGNTNM,-0.829 ± 0.63
8,YDVNGLFTITNPAANYMKPT,-1.3 ± 0.34
9,GLSVKTGQGSGFPDLCVGKR,0.838 ± 0.17
10,SVGGR,-0.288 ± 0.8
11,VINLGGSE,0.406 ± 0.38
12,RKFFSIVRFCA,inactive
13,WKFRNN,inactive
14,VSARGSWFLTTSAAC,-1.29 ± 1.1
15,FRMNEQSPAEWSRSVYFGGG,-0.346 ± 0.49
16,TDALANSNRPSKFQVH,-0.059 ± 0.37
17,SVCLSSYFHCKRSVMWFYKV,-0.363 ± 0.74
18,RRWDHRIHGILSISDIIFLR,inactive
19,VYIYSGFVVSWLRFFGVMRP,-0.394 ± 1.1
20,QEMYALACHVLTCCNLRNKR,9.866 ± 0.034
21,VGSSHQSLEATKWGVVVLCR,6.569 ± 0.049
22,RFCGVVLSHSSD,7.913 ± 0.03
23,AYYYWLGG,-0.381 ± 1.1
24,VWPTMCTVFAMF,2.51 ± 0.065
25,TFYSLGLNISMFSLPGLAGY,0.683 ± 0.35

row,Substance,amyloid nucleation score
1,GVHYEKEGVRTSVFSDLSWE,-0.021 ± 0.3
2,AWGRARNVRFYFVLRGESGL,2.79 ± 0.12
3,YMTSD,-0.464 ± 0.41
4,YYGLVSGGLQYVCMFGSFIY,inactive
5,IFSIHVVAQTINE,4.64 ± 0.085
6,IRGCLNMFWLKKWDLPRLYF,-0.327 ± 0.63
7,LSMERSVGFYDTVTLWLQRK,5.9 ± 0.056
8,WSVDYDGCLCS,-0.094 ± 0.45
9,GSIVVNGIGKLGKERRVTSV,0.302 ± 0.21
10,MISRCDWFWSKLKTSL,2.29 ± 0.06
11,IPRCKKW,3.22 ± 0.1
12,AVAASLMFYVCFITADIADM,0.859 ± 0.74
13,TFYSSWWSNSECYCS,2.45 ± 0.1
14,LYIDIRRSCLVCNGMSWRAG,5.865 ± 0.052
15,AYKTSHVWSLYRVHGV,0.41 ± 0.25
16,RCPRSKLVIMDRASVLEGGR,0.559 ± 0.32
17,REVLWCLPDQGELPGGVTFG,2.44 ± 0.08
18,FFGVSWRWARNFCYDMGQVY,-0.177 ± 1
19,CLVINSIKVFYARVGTSYKF,2.01 ± 0.19
20,GFGSVLIW,-0.523 ± 1
21,GFLFRFETRKTHRSCLSWIG,1.71 ± 0.13
22,MAKIFFPNRQVIPPTRMQRV,1.12 ± 0.47
23,CQRTLQTGAYRDGLCIYGLS,1.38 ± 0.41
24,WLYALWCDWSA,3.97 ± 0.061
25,VKVGSSTRRGSGVPSGPKLG,1.04 ± 0.52

row,Substance,amyloid nucleation score
1,VLYFLYGKWQKTQRSNRYLQ,-0.674 ± 0.76
2,NFSIL,-0.184 ± 1.1
3,VVIQPGTYFYLCNIFA,-1.58 ± 0.78
4,DEGVPSGYVTAL,-0.354 ± 0.76
5,TRQLIYHWDKFSPHPAQFLT,0.652 ± 0.64
6,VLRRIVMMLSIS,-0.069 ± 0.32
7,SESWSSCIMA,1.33 ± 0.39
8,TRPLFTFRAMVDTRIHVFPM,0.201 ± 0.8
9,LVHSLDFL,-0.389 ± 0.61
10,CFGRGLCVSIGVVRCTGGPC,0.119 ± 0.62
11,DFISCVLFSLFFRTLSRKGH,-0.679 ± 0.64
12,RLTFSSIVTGGLQFKTLL,2.75 ± 0.1
13,IFSWTLEV,0.249 ± 0.64
14,IFSNIFSFV,3.55 ± 0.13
15,CLDLLWHSWASYLLAGALWW,0.94 ± 0.74
16,NYLQCWVFGRESMSLYKIWL,-0.081 ± 1.1
17,YFGCQMMSN,0.459 ± 0.54
18,KVGDQLQLRTSATV,0.459 ± 0.22
19,LTTVGHSVKLSWRVLSG,1.9 ± 0.18
20,FVSVIILCFCVIQPMNLNSV,1.4 ± 0.15
21,SGPIEIRPCIPRKLVCSYRH,1.01 ± 0.53
22,PESGGNAIFAHERMQLGRRS,0.92 ± 0.57
23,YFYRRVCGINAGPQPCLEYV,-1.27 ± 0.54
24,VNWVGLSLKIRGYFTVSTWR,-0.141 ± 0.54
25,AVIMALNIGWRRRDSGWDGV,5.9 ± 0.083

row,Substance,amyloid nucleation score
1,AWRMCTV,0.302 ± 0.33
2,TAALRVILGCMYNIWQMWHR,1.06 ± 0.57
3,FCWLCFIRSEV,0.554 ± 0.81
4,LFECMPYGLNAKDSCADSNV,-0.303 ± 0.5
5,NFHLEIIFPRQLRLNRSPWV,3.96 ± 0.13
6,SYTWFSYIWYSLVFLRD,-0.088 ± 0.8
7,IRLAYASRNWCSSFGCGRMI,-0.571 ± 0.55
8,WMNFCPDVGHANGGVPNRLG,0.583 ± 0.37
9,NTIMFEFICSIGITVYD,1.33 ± 0.21
10,HSRRGGFRKYSSTLARPASD,-0.799 ± 0.49
11,MKCDIFGGLSDN,0.698 ± 0.62
12,CYTDTMARK,4.15 ± 0.047
13,DNDMG,-0.267 ± 0.25
14,LLFLRYVVYFGNLDCLGLYM,-1.44 ± 1
15,FASLFPKAPERTEVSEPYRR,-0.76 ± 0.5
16,GSRHRDLYLGLRLYYTDVEV,-0.763 ± 0.36
17,AWRYWFHTLSLTLKNWTSVF,5.14 ± 0.087
18,RSNDCDDLMDHVLWGYETYR,1.08 ± 0.66
19,CVTQSR,-0.086 ± 0.26
20,FSCMISIKRFFRVAKNASGY,4.84 ± 0.084
21,GPITWTNSSGCRIPMPSFSE,1.42 ± 0.36
22,NPALSSWAEGSTP,0.299 ± 0.61
